Earlier results on one substance are cited in publication PMC3686100.

The target in this series is ClpP (Escherichia coli) (UniProt P0A6G7).
Chain of UniProt P0A6G7 (P0A6G7 15-207): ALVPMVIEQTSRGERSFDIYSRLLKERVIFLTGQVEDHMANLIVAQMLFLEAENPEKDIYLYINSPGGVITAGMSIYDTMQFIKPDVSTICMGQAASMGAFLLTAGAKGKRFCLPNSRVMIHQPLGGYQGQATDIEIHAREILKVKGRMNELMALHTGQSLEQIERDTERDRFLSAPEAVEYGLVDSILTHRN

The Kd is the constant that tells how readily two partners part at equilibrium. As for ClpX (from UniProt P0A6H1), the Kd is 90 nM.
